Experimental data taken from PMC11417767.

Molecular target: FAIM2 (Fas-apoptotic inhibitory molecule 2) (UniProt Q8K097)
Assay: FAIM2 immunoprecipitation, αA-crystallin immunoblot
Settings: reference: wild type; sites T148

binding against the reference: weaker
Substance: αA-crystallin (HSPB4/CRYAA) (from UniProt P02489) T148A
